The source of these data is US5844099, “Cytokine antagonists” (Regeneron Pharmaceuticals, Inc., dated 1998).

Experiment [1] has as its target T1, recombinant human IL-6 (human, UniProt P05231).
In experiment [2] the target is human 125I-IL-6 (human) (UniProt P05231). The experiment can be described thus: dissociation of 20 pM 125I-IL-6 from 500 pM mAb B-E8 after adding 20 nM cold IL-6; precipitation with Protein G-Sepharose.
Experiment [3] concerns the target CNTFRα, gp130 and LIFRβ on EW-1 cells. The experiment can be described thus: two site fit of CNTF binding on EW-1 cells; high affinity site.
In experiment [4] the target is CNTFRα on EW-1 cells. The experiment can be described thus: two site fit of CNTF binding on EW-1 cells; low affinity site.
Experiment [5] concerns the target T1, recombinant human IL-6. Description: cell-based or functional assay.
Experiment [6] deals with T2, CNTFRα on PC12D cells.
T2 sequence (Q08406 23-342, looked up): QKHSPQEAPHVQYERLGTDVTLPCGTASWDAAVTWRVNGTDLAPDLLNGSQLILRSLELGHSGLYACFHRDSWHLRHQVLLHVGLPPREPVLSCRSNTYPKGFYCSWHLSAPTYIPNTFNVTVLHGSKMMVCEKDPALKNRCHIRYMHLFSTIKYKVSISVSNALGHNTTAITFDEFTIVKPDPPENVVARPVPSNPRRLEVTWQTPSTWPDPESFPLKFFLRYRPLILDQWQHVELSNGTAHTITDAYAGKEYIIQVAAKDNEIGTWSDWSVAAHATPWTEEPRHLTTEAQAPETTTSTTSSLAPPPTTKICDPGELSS
Description: Scatchard analysis of 125I-CNTF saturation binding on PC12D cells; low affinity site.

In experiment [7] the target is T3, CNTFRα:β1 (CNTFRα and gp130) on PC12D cells.
T3 sequence (Q08406 whole entry, looked up): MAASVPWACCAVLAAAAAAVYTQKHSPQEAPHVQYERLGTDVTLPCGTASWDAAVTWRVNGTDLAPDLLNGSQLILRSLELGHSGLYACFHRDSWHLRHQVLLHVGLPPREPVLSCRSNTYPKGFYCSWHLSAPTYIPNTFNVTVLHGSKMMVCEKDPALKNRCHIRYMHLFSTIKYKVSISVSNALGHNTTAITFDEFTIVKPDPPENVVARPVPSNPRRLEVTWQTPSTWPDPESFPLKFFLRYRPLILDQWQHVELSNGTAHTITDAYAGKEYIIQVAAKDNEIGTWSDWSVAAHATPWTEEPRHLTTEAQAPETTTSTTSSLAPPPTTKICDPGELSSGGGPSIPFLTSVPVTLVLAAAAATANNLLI
T3 sequence (P40190 whole entry, looked up): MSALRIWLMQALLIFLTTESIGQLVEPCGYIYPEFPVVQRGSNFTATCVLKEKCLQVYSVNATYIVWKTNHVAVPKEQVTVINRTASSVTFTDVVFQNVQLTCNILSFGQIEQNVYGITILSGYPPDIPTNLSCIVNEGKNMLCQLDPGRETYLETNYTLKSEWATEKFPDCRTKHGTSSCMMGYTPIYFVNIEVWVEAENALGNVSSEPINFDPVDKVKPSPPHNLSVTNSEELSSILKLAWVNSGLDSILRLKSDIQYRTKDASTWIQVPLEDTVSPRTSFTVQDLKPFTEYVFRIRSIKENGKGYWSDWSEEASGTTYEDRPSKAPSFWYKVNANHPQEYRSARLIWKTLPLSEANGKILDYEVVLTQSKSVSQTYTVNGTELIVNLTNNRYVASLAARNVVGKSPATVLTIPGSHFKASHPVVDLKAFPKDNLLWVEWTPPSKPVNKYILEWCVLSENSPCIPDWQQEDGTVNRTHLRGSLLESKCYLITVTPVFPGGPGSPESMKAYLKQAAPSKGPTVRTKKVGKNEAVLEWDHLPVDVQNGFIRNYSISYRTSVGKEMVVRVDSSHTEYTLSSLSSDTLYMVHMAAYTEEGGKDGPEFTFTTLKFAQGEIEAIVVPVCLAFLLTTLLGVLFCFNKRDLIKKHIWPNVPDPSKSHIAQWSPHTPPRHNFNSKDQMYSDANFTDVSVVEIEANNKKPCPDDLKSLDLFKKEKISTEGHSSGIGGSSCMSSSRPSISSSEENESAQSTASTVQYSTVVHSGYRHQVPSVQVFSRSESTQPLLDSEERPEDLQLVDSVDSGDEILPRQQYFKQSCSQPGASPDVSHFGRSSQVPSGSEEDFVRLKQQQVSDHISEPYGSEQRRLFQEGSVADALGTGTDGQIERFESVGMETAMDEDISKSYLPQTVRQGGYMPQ
Description: Scatchard analysis of 125I-CNTF saturation binding on PC12D cells; high affinity site.

As usually defined, the Kd is a measure of binding affinity in units of concentration. Read a high Kd as a looser complex.

As to “anti-IL-6 monoclonal neutralizing antibody B-E8”, the IL-6-dependent proliferation of XG-1 cells (MTT assay) (fold molar excess over IL-6) in experiment [1] worked out at 10. In addition, in experiment [2], the percent of the counts remaining associated after three days was under 5%.
For the molecule CNTF (ligand), the Kd was 10 pM in experiment [3] and 1000 pM in experiment [4].

B1: gp130-Fc homodimer (Fc fusion)
chain (part 1 of 2): ELLDPCGYISPESPVVQLHSNFTAVCVLKEKCMDYFHVNANYIVWKTNHFTIPKEQYTIINRTASSVTFTDIASLNIQLTCNILTFGQLEQNVYGITIISGLPPEKPKNLSCIVNEGKKMRCEWDGGRETHLETNFTLKSEWATHKFADCKAKRDTPTSCTVDYSTVYFVNIEVWVEAENALGKVTSDHINFDPVYKVKPNPPHNLSVINSEELSSILKLTWTNPSIKSVIILKYNIQYRTKDASTWSQIPPEDTASTRSSFTVQDLKPFTEYVFRIRCMKEDGKGYWSDWSEEASGITYEDRPSKAPSFWYKIDPSHTQGYRTVQLVWKTLPPFEANGKILDYEVTLTRWKSHLQNYTVNATKLTVNLTNDRYLATLTVRNLVGKSDAAVLTIPACDFQATHPVMDLKAFPKDNMLWVEWTTPRESVKKYILEWCVLSDKAPCITDWQQEDGTVHRTYLRGNLAESKCYLITVTPVYADGPGSPESIKAYLKQAPPSKGPTVRTKKVGKNEAVLEWDQLPVDVQNGFIRNYTIFYRTIIGNETAVNVDSSHTEYTLSSLTSDTLYMVRMAAYTDEGGKDGPEFTFTTPKFAQGEIESG
chain (part 2 of 2): HHHHHH
With B1, the “IL-6-dependent proliferation of XG-1 cells” value in experiment [5] is 1000 fold molar excess over IL-6.

B2: 125I-CNTF (ligand, UniProt P20294 1-200, looked up, species assumed)
Ciliary neurotrophic factor: MAFAEQTPLTLHRRDLCSRSIWLARKIRSDLTALMESYVKHQGLNKNINLDSVDGVPVASTDRWSEMTEAERLQENLQAYRTFQGMLTKLLEDQRVHFTPTEGDFHQAIHTLMLQVSAFAYQLEELMVLLEQKIPENEADGMPATVGDGGLFEKKLWGLKVLQELSQWTVRSIHDLRVISSHQMGISALESHYGAKDKQM
modifications: 125I label
Take B2: the values for the Kd in experiment [6] and in experiment [7] were 3400 pM and 9 pM, respectively.
